Results from paper doi:10.1101/783266.

Legend:
Test in all cases: BLI
[1] = target: LRX4^ΔE-FLAG (Arabidopsis thaliana) (UniProt Q9LHF1)
[2] = target: LRX5^ΔE-FLAG (Arabidopsis thaliana) (UniProt Q9SN46)
[3] = target: LRX1^ΔE-FLAG (Arabidopsis thaliana) (UniProt O65375)
Sequence of UniProt O65375 (O65375 27-744, stated change not applied): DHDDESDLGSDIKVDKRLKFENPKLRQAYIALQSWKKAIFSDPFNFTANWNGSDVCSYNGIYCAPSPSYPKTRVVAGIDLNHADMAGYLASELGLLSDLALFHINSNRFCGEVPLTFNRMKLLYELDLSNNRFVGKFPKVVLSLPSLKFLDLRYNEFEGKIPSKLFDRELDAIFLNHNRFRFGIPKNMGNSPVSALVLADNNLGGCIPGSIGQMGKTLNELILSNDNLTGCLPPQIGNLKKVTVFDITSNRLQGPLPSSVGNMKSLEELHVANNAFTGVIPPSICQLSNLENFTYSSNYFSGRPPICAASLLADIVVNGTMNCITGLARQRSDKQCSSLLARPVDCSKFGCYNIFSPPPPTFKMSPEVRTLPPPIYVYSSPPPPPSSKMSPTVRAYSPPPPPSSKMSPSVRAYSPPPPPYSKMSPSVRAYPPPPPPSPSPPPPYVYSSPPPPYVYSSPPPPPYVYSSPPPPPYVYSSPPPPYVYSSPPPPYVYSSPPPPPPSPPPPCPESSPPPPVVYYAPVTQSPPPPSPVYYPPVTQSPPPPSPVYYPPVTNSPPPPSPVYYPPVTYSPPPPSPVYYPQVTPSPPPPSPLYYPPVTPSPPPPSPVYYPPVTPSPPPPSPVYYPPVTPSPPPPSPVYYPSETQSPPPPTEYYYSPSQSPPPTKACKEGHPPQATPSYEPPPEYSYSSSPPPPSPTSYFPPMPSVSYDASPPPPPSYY

Sequence of UniProt Q9LHF1 (Q9LHF1 26-494, stated change not applied): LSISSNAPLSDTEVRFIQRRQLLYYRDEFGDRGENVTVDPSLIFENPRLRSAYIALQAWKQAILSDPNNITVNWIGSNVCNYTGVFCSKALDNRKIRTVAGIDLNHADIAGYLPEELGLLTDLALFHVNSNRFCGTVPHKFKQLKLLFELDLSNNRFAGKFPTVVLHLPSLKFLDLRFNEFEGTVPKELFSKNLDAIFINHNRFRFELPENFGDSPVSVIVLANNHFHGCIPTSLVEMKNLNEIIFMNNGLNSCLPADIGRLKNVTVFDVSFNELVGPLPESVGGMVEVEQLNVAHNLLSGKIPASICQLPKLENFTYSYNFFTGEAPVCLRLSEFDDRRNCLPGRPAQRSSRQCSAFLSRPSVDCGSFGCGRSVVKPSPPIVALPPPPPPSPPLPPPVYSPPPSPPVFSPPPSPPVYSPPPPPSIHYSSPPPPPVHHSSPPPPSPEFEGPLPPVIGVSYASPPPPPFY
Sequence of UniProt Q9SN46 (Q9SN46 32-857, stated change not applied): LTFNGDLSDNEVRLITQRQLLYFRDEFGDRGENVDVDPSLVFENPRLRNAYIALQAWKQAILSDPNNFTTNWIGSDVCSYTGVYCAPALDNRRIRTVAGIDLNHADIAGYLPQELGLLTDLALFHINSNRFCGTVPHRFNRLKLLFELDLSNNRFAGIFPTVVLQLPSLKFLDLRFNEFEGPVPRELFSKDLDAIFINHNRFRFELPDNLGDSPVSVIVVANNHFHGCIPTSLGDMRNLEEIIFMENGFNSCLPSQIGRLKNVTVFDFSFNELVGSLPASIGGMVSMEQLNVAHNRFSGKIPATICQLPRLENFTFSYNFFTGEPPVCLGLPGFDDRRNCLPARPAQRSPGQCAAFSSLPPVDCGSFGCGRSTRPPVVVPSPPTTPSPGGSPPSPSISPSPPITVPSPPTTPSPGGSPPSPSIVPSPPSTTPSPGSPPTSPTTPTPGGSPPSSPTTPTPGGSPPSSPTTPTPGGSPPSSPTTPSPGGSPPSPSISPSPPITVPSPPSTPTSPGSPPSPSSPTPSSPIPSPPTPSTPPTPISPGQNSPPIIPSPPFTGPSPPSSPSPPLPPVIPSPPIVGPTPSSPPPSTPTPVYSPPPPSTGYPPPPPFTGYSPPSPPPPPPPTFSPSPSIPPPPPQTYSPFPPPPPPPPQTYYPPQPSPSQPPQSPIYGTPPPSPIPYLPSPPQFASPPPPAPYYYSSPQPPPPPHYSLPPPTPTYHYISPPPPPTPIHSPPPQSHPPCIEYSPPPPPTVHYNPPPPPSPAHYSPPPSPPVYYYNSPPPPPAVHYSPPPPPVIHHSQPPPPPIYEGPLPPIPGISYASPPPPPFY

Kd [1]: 5 nM
Kd [2]: 5 nM
Kd [3]: 5 nM
Binder: ATTKYISYQSLKRNSVPCSRRGASYYNCQNGAQANPYSRGCSKIARCRS [RALF1, in vitro synthesized peptide]
